Source: paper PMC8072984, “Engineering of Saposin C Protein Chimeras for Enhanced Cytotoxicity and Optimized Liposome Binding Capability” (Pharmaceutics, 2021)

Biological target: T1, Human Bcl-xL-ΔTM (native amino acid sequence without the transmembrane domain) (human)
T1 construct: ~24.5 kDa; Unlabeled in the NMR titration; source: cloned into pET21a; not shown: His6, N-terminal, kept
Assay: NMR titration; [1H-15N]-SOFAST-HMQC at 298 K, 600 MHz; 15N-labelled chimera at 100 µM mixed with unlabeled Bcl-xL-ΔTM (stock 900 µM, pH 6.8) at chimera:Bcl-xL molar ratios 1:0, 1:0.5, 1:1, 1:2; 10% D2O; slow exchange, the upper limit of KD estimated from the chemical shift difference assuming diffusion-controlled kon
Details: both partners purified

B1: sapC-PUMA chimera (saposin C linked to the BH3 domain of PUMA) (other)
chain: SDVYCEVCEFLVKEVTKLIDNNKTEKEILDAFDKMCSKLPKSLSEECQEVVDTYGSSILSILLEEVSPELVCSMLHLCSGGGGEEQWAREIGAQLRRMADDLNAQYER
modifications: Three disulfide bonds in the sapC part. Chimera numbering of sapC + 307 = P07602 numbering (S4-G83 = 311-390). Vector residues 1-3 (letters only in Figure 2) and the C-terminal thrombin-site remnant …
B1 was tested, and the Kd was < 49 nM and the koff was < 49 s⁻¹.
